Data from article PMC11496107.

B1: LXRα-VP16 (wild-type liver X receptor-α fused to VP16) [human] / Gal4-SRC1 (aa 570-780) [not stated] (parent)
chain 1: MSLWLGAPVPDIPPDSAVELWKPGAQDASSQAQGGSSCILREEARMPHSAGGTAGVGLEAAEPTALLTRAEPPSEPTEIRPQKRKKGPAPKMLGNELCSVCGDKASGFHYNVLSCEGCKGFFRRSVIKGAHYICHSGGHCPMDTYMRRKCQECRLRKCRQAGMREECVLSEEQIRLKKLKRQEEEQAHATSLPPRASSPPQILPQLSPEQLGMIEKLVAAQQQCNRRSFSDRLRVTPWPMAPDPHSREARQQRFAHFTELAIVSVQEIVDFAKQLPGFLQLSREDQIALLKTSAIEVMLLETSRRYNPGSESITFLKDFSYNREDFAKAGLQVEFINPIFEFSRAMNELQLNDAEFALLIAISIFSADRPNVQDQLQVERLQHTYVEALHAYVSIHHPHDRLMFPRMLMKLVSLRTLSSVHSEQVFALRLQDKKLPPLLSEIWDVHE
chain 2: PSRLNIQPAKAESKDNKEIASILNEMIQSDNSSSDGKPLDSGLLHNNDRLSDGDSKYSQTSHKLVQLLTTTAEQQLRHADIDTSCKDVLSCTGTSNSASANSSGGSCPSSHSSLTERHKILHRLLQEGSPSDITTLSVEPDKKDSASTSVSVTGQVQGNSSIKLELDASKKKESKDHQLLRYLLDKDEKDLRSTPNLSLDDVKVKVEKKEQ

Variants of: B1
Assay: mammalian two-hybrid assay (luciferase reporter, HEK293 cells)
Settings: with Gal4-SRC1 (aa 570-780); GOF sub-panel; highest T0901317 (T09) dose plotted (rightmost point); 20 h; parent: 100; read off a plot

Variant | percent of parent
chain 1 MSLWLGAPVPDIPPDSAVELWKPGAQDASSQAQGGSSCILREEARMPHSAGGTAGVGLEAAEPTALLTRAEPPSEPTEIRPQKRKKGPAPKMLGNELCSVCGDKASGFHYNVLSCEGCKGFFRRSVIKGAHYICHSGGHCPMDTYMRRKCQECRLRKCRQAGMREECVLSEEQIRLKKLKRQEEEQAHATSLPPRASSPPQILPQLSPEQLGMIEKLVAAQQQCNRRSFSDRLRVTPWPMAPDPHSREARQQRFAHFTELAIVSVQEIVDFAKQLPGFLQLSREDQIALLKTSAIEVMLLETSRRYNPGSESITFLKDFSYNREDFAKAGLQVEFINPIFEFSRAVNELQLNDAEFALLIAISIFSADRPNVQDQLQVERLQHTYVEALHAYVSIHHPHDRLMFPRMLMKLVSLRTLSSVHSEQVFALRLQDKKLPPLLSEIWDVHE [chain 1 M346V] | 100 % WT

Same assay, conditions: with Gal4-SRC1 (aa 570-780); GOF sub-panel; untreated condition (leftmost point, plotted an order of magnitude below the lowest T09 dose); 20 h; parent: 100; read off a plot

Variant | percent of parent
chain 1 MSLWLGAPVPDIPPDSAVELWKPGAQDASSQAQGGSSCILREEARMPHSAGGTAGVGLEAAEPTALLTRAEPPSEPTEIRPQKRKKGPAPKMLGNELCSVCGDKASGFHYNVLSCEGCKGFFRRSVIKGAHYICHSGGHCPMDTYMRRKCQECRLRKCRQAGMREECVLSEEQIRLKKLKRQEEEQAHATSLPPRASSPPQILPQLSPEQLGMIEKLVAAQQQCNRRSFSDRLRVTPWPMAPDPHSREARQQRFAHFTELAIVSVQEIVDFAKQLPGFLQLSREDQIALLKTSAIEVMLLETSRRYNPGSESITFLKDFSYNREDFAKAGLQVEFINPIFEFSRAVNELQLNDAEFALLIAISIFSADRPNVQDQLQVERLQHTYVEALHAYVSIHHPHDRLMFPRMLMKLVSLRTLSSVHSEQVFALRLQDKKLPPLLSEIWDVHE [chain 1 M346V] | 18 % WT
